From patent US10548996B2, “Hydrogels for localized radiotherapy” (Washington University, priority 2014, dated 2020)

Assays:
[1] = In vitro release of fluorescence from chitosan hydrogels to the surrounding media; assay type: physicochemical; conditions: FIG. 5, all time points tested, up to two weeks
Protocol: To determine the release of large molecules from the hydrogels, the following experiment was conducted. The chitosan hydrogels with the best injectability properties were analyzed naïve or loaded with the alginate microparticles with the best encapsulation efficiency. The in vitro release studies were developed by using a large-size molecule such as albumin and a small-size molecule as cresyl violet to detect the efficacy in both encapsulation settings. Albumin is not detectable by fluorescence reader or spectrophotometer, thus FITC was labeled to albumin. […] Different time points were measured to analyze short and long-term release. At 0, 1, 2, 4, 8, and 24 h, for short-term release, and 0, 0.33, 1, 2, 3, 7, 14, 21, 28, 42 days for long-term release, samples from the PBS solution that surrounded the chitosan hydrogels were analyzed by fluorescence reader (Alb-FITC and FITC) at 485/516 nm or spectrophotometer (CV) at 595 nm. The % release was calculated as follows: % Release=(Chitosan hydrogel−Blank)/(Control−Blank)*100
To assess these concepts, the release of fluorescence to the surrounding media was tested from chitosan hydrogels containing free-fluorescein, fluorescien-conjugated to bovine serum albumin (FITC-Alb), and FITC-Alb encapsulated in calcium-alginate microparticles.

[2] = Release of radioactivity from implanted solid chitosan hydrogels to adjacent normal tissues (radiographic imaging); assay type: in vivo; conditions: FIG. 4; rats, non-encapsulated, loaded in solid chitosan hydrogel implant; Day-1 to Day-7

| Compound | relative release of fluorescence to the surrounding media [1] | radioactive leakage from the implant to adjacent normal tissues [2] |
| --- | --- | --- |
| FITC-Alb: fluorescien-conjugated to bovine serum albumin, in chitosan hydrogel | less than half of the relative release of fluorescein |  |
| CC(C)CCCC(C)C1CCC2C3CC(C[131I])C4=C(CCC(O)C4)C3CCC12C (centres unmarked) [^131I-nor-cholesterol] |  | radioactive leakage from the implant starting at Day-1 that becomes more evident at Day-7 |
